{"source": "patent US12448434B2", "about": "“Antibodies specifically recognizing Pseudomonas PcrV and uses thereof” (priority 2019, dated 2025)", "molecules": {"B1": {"name": "6D10: optimized anti-PcrV mAb clone; VH SEQ ID NO: 61, VL SEQ ID NO: 65 (antibody, V domains shown)", "VH": "EVQLLESGGGLVQPGGSLRLSCTASGFTFSDYPMSWVRQAPGKGLDWVSGISESGGSTNYADSVKGRFSTSRDNSKSTLYLDMNSLRAEDTAIYYCAKGRFSTDSSHFYRAVYGMDVWGQGTAVTVSS", "VL": "DIQLTQSPSSLSASVGDRVTITCRASQGISSYLAWYQQKPGKAPKLLIYAASTLQSGVPSRFSGSGSGTDFTLTISSLQPEDFATYYCQQLSSYPLSFGGGTKVEIK"}, "B2": {"name": "9B12: optimized anti-PcrV mAb clone; VH SEQ ID NO: 64, VL SEQ ID NO: 67 (antibody, V domains shown)", "VH": "B1 VH with Y32N, G50V, Y60D, D104N, S106D", "VL": "B1 VL with S97T"}, "B3": {"name": "7B1-1F5: optimized anti-PcrV mAb clone; VH SEQ ID NO: 62, VL SEQ ID NO: 70 (antibody, V domains shown)", "VH": "B1 VH with Y32N, P33Y, G50V, D104L, Y109F", "VL": "B1 VL with L11F, V15T, L46V, D70E, S92K, S97T, V104L"}, "B4": {"name": "13-42: lead parental full-length human IgG1 anti-PcrV antibody; VH SEQ ID NO: 48, VL SEQ ID NO: 65 (antibody, V domains shown)", "VH": "B1 VH with Y60D, S102C, D104N, H107C, Y109F", "VL": "B1 VL"}, "B5": {"name": "2D3: optimized anti-PcrV mAb clone; VH SEQ ID NO: 53, VL SEQ ID NO: 65 (antibody, V domains shown)", "VH": "B1 VH with Y32N, P33H, N59Y, T103Y, S105T, S106R, Y109F", "VL": "B1 VL"}}, "key": {"BV particles": {"system": "BV particles", "assay": "Cross-reactivity to BV particles by ELISA", "assay_type": "binding", "conditions": "FIG. 3", "procedure": "Cross-reactivity to BV particles: Using ELISA, optimized antibodies 7C1, 7B1, 8C1, 6D10, and reference antibodies V2L2-MD and Mab166 were tested for cross-reactivity to BV particles according to the method described previously (See Hötzel I, et al, 2012, mAbs 4:6, 753-760)."}, "[1]": {"system": "P. aeruginosa (PA103 strain)", "assay": "Therapeutic mouse acute pneumonia model, survival", "assay_type": "in vivo, BALB/c mice", "conditions": "i.v. 1 h post-infection, 1 mg/kg or 10 mg/kg; 1*LD90; 6 days", "procedure": "In a therapeutic model, to induce acute pneumonia, 7-8 week old BALB/c mice (Vital River Laboratory) were intranasally inoculated with P. aeruginosa (PA103 strain) suspended in a 40 μl inoculum at a lethal dose (1*LD90=8×10^5 CFU). Antibodies or PBS were administered intravenously (i.v.) at 1 h post-infection, at a dose of 1 mg/kg or 10 mg/kg mouse weight. Mouse survival was recorded for up to 6 days post-infection."}, "PcrV-negative A549 cells": {"system": "PcrV-negative A549 cells", "assay": "Cross-reactivity to PcrV-negative A549 cells by FACS", "assay_type": "cell-based, human", "conditions": "FIGS. 4A-4E, compared with no antibody and V2L2-MD", "procedure": "Cross-reactivity to A549 cells: Using FACS, parental antibody 13-42, optimized antibodies 7C1, 7B1, 8C1, 6D10 as well as V2L2-MD were tested for cross-reactivity to PcrV-negative A549 cells."}, "PcrV": {"system": "PcrV", "assay": "BIACORE binding to PcrV", "parameters": "species or system Pseudomonas aeruginosa", "conditions": "data not shown", "procedure": "The association constant (ka), dissociation constant (kd) and the equilibrium dissociation constant (kD) for binding of optimized anti-PcrV mAb clones 7B1, 7C1, 8C1, 6D10 and reference antibody V2L2-MD to PcrV were tested by BIACORE (GE company)."}, "[2]": {"system": "P. aeruginosa (PA103 strain)", "assay": "Prophylactic mouse acute pneumonia model, organ burden", "assay_type": "in vivo, BALB/c mice", "conditions": "10 mg/kg i.p. 24 hr before infection, 0.5*LD90", "procedure": "In a prophylactic model, 7-8 week old BALB/c mice (Vital River Laboratory) were administered with antibodies or PBS intraperitoneally (i.p.) 24 hr before infection, at 10 mg/kg mouse weight. To induce acute pneumonia, the BALB/c mice were intranasally inoculated with P. aeruginosa (PA103 strain) suspended in a 40 μl inoculum at half the lethal dose (0.5*LD90; 3×10^5 CFU). 24 hours post-infection, mice were euthanized, where the lungs, spleens and kidneys were extracted, homogenized and diluted before plating on agar to measure the viable bacteria units (in CFU), which represented the P. aeruginosa burden in the respective organ sample."}, "[3]": {"system": "PcrV mutants (with mutations at position 225)", "assay": "Binding to PcrV mutants with mutations at position 225", "parameters": "species or system Pseudomonas aeruginosa", "conditions": "data not shown", "procedure": "To further illustrate the optimized antibodies could broadly neutralize P. aeruginosa strains, the abilities of these antibodies to bind various forms of PcrV mutants were tested. Briefly, 100 PcrV sequences were randomly selected from Genebank database. In contrast to the wild type sequence as shown in SEQ ID No: 71, 13% of the selected sequences contained R, G, or K at position 225 (as compared of S in the wild type sequence SEQ No: 71), which was the main mutation around the epitope of 7B1.\nThese findings further illustrate that the optimized anti-PcrV antibodies could neutralize a broad spectrum of P. aeruginosa strains, which might express various forms of PcrV mutants."}, "[4]": {"conditions": "rat, in vivo, iv", "procedure": "Pharmacokinetic profile in rat: 40 healthy adult rats (about 0.2 kg by weight) were equally into two groups, where each group registered similar average weight. One group was injected intravenously with 30 mg/kg of V2L2-MD, 7C1, 7B1, 8C1 or 6D10 and the other group was injected intravenously with 3 mg/kg of V2L2-MD, 7C1, 7B1, 8C1 or 6D10. Blood was collected at […], and subsequently at 0 hour, 0.5 hour, 2 hour, 8 hour, 1 day, 3 days, 7 days, 11 days, 17 days, 23 days, 31 days, 41 days and 52 days after injection. After centrifugation, the plasma was used for analyzing antibody concentration using ELISA. For the ELISA experiment, synthetic PcrV was used to coat the wells of a 96-well plate. On the following day, after washing with PBST, blocking with 200 μL PBS-milk for an hour, and another wash with PBST, the plasma was added and incubated for an hour at 37° C. The plate was washed with 0.1% TBST for 6 times before 100 μL of Goat-anti-human Fc antibody-AP (1:3000 in PBS) was added to each well and incubated for an hour. After washing with 0.1% TBST for 6 times, 50 μL of pNPP was added to each well and color was developed for 10-20 minutes at 37° C. The signals were read by a microplate reader at 410 nm."}, "[5]": {"system": "Strain 57/66(O6) P. aeruginosa", "assay": "RBC lysis inhibition assay, strain 57/66(O6)", "assay_type": "cell-based, Pseudomonas aeruginosa", "conditions": "Table 7", "procedure": "Monoclonal scFv antibodies were selected and assessed for biological activity by RBC lysis assay. Briefly, red blood cells (RBCs) were prepared from fresh whole human or rabbit blood by centrifugation, supplemented with EDTA and rinsed with multiple phosphate-buffered saline (PBS) washes. Washed RBCs (2.5% [vol/vol] final) in Dulbecco's modified Eagle's medium (DMEM) plus 10% fetal bovine serum (FBS) (Gibco) and purified anti-PcrV antibodies diluted in PBS were combined into wells of a round-bottom 96-well plate. Strain 57/66(O6) P. aeruginosa was grown to mid-log phase in 2× YT medium (Oxford), harvested by centrifugation, and resuspended in DMEM-fetal bovine serum (FBS) at an optical density at 600 nm (OD600) of 0.15. Ten microliters of bacterial suspension was added to the RBC-antibody mixture, mixed by agitation, and incubated for 3 hours at 37° C. and 5% CO2. The plates were briefly centrifuged (1000 rpm, 1 min) to pellet the intact RBCs, the supernatants transferred to a flat-bottom 96-well plate, and the OD405 was measured to detect any lysis, from which the relative amount of lysis inhibition was calculated and plotted. IC50 values for the antibodies were also determined.\nThe ability of optimized anti-PcrV mAb clones 7B1, 7C1, 8C1, 6D10, 6A10, 5B3, 3B12, 4A10, 2B1, 7B2, 3H10, 3G3, 9B12, 3A9, 2D3, 7B1-1F5, to inhibit red blood cell lysis was compared to the parental 13-42 mAb and the reference antibody V2L2-MD. RBC lysis inhibition assay was performed as described in Example 1.\nThe optimized anti-PcrV mAb clones 7C1, 8C1, and 7B1 were further analyzed for their abilities to inhibit red blood cell lysis by various strains of P. aeruginosa, namely strains O1-52/66, O16-177/81, and O6-57/66, as compared to the parental 13-42 mAb and the reference antibody V2L2-MD. RBC lysis inhibition assay was performed as described in Example 1."}}, "note": "Substitutions are numbered along the chain they refer to.", "data": [{"molecule": "B1", "values": [{"measurement": "non-specific binding to BV particles", "setting": "BV particles", "result": "low levels of non-specific binding"}, {"measurement": "survival improvement relative to V2L2-MD", "setting": "[1]", "result": "survival improvement comparable to that of V2L2-MD"}, {"measurement": "binding to PcrV-negative A549 cells", "setting": "PcrV-negative A549 cells", "result": "similarly low levels of A549 binding"}, {"measurement": "association and dissociation kinetics in PcrV binding (ka and kd values)", "setting": "PcrV", "result": "comparable association and dissociation kinetics"}, {"measurement": "reduction of organ burden in the lung, spleen and kidney relative to HIV-10E8", "setting": "[2]; FIG. 8B", "result": "higher efficacy in reducing organ burden"}, {"measurement": "reduction of organ burden in the lung, spleen and kidney relative to V2L2-MD", "setting": "[2]; FIG. 8B", "result": "comparable efficacy in reducing organ burden"}, {"measurement": "binding to PcrV mutants with R, G or K at position 225", "setting": "[3]", "result": "strongly bind these mutants"}, {"measurement": "half-lives relative to reference antibody V2L2-MD", "setting": "[4]", "result": "comparable to or longer than that of reference antibody V2L2-MD"}]}, {"molecule": "B2", "values": [{"measurement": "RBC lysis assay IC50", "setting": "[5]", "result": 0.07, "unit": "µg/mL"}]}, {"molecule": "B3", "values": [{"measurement": "RBC lysis assay IC50", "setting": "[5]", "result": 0.19, "unit": "µg/mL"}]}, {"molecule": "B4", "values": [{"measurement": "binding to PcrV-negative A549 cells", "setting": "PcrV-negative A549 cells", "result": "similarly low levels of A549 binding"}, {"measurement": "reduction of organ burden in the lung relative to V2L2-MD", "setting": "[2]; 24 hours post-infection, FIG. 8A", "result": "better efficacy in reducing organ burden in the lung"}]}, {"molecule": "B5", "values": [{"measurement": "RBC lysis assay IC50", "setting": "[5]", "result": 0.05, "unit": "µg/mL"}]}]}
